The subject of test [1] is CpGs of the hMLH1 promoter region. Briefly: Bisulfite conversion and sequencing of hMLH1 promoter. The class given is cell-based, human. The following applies: HEK293T; Casilio-ME days 3-6 post transfection; AzaC treatment for 6 days. An excerpt:
Casilio-mediated delivery of demethylation enzymes alters methylation state of targeted genomic locus. Evidence that the shown Casilio-ME-induced activation of hMLH1 transcription is a result of TET1-mediated cytosine demethylation within the targeted promoter region came from DNA sequencing of hMLH1 promoter after bisulfite conversion. Bisulfite treatment of genomic DNA deaminates unmethylated cytosines to produce uracils that are subsequently replicated as thymine. However, methylated cytosines are protected from conversion to uracils, thus allowing one to determine cytosine methylation states at single-nucleotide resolution by direct sequencing.
To assess changes in methylation states of CpG island within hMLH1 promoter region after Casilio-ME-mediated transcription activation, time course experiment were carried out where cells were collected 3, 4, 5, and 6 days post transfection, for analysis of cytosine methylation as well as transcription activation, and protein expression. HEK293T were transfected with Casilio-ME components that includes Ct-fusion PUFa-TET1 effector and a combination of 2 sgRNAs (RNA guides 3 and 7).
Bisulfite conversion and sequencing. Genomic DNAs were extracted using all AllPrep DNA/RNA/Protein Mini Kit according the manufacturer's instructions (Qiagen). […]

Test [2] relates to 5′-UGUGUGUG-3′ RNA (SEQ ID NO:13). As to conditions: cited from earlier work.
The test system of test [3] is SOX2 gene expression (SOX2 promoter) in HEK293T cells. Briefly: SOX2 expression by quantitative reverse-transcription PCR after Dnmt effector targeting. The class given is cell-based. The following applies: guides targeting SOX2 promoter, compared to direct dCas9 fusions. As for the experimental part: Establishment of a dCas9-expressing cell line. The day prior to transfection, Lenti-X 293T cells were seeded into 6-well plates at 1.2 million cells per well. The cells were transfected with the supercoiled packaging plasmids (pLP1 (gag/pol), pLP2 (rev), and VSV-G (envelope)) and a dCas9 lentiviral expression plasmid through Lipofectamine 3000 reagent (Invitrogen). At 6 h posttransfection, medium was exchanged for fresh. At 24 h posttransfection, 2 ml of medium containing the lentivirus were collected and centrifuged for 10 minutes at 2,000 rpm to remove cellular debris. The supernatant was filtered utilizing a […] pore filter (Millipore), and the lentivirus was frozen at −80° C. until needed. HEK293T cells, seeded into a 12-well plate at 150,000 cells per well, were transduced with 500 μl of the dCas9 lentivirus in culture medium supplemented with 5 μg/ml polybrene for 12 hours, and subsequently selected with Blasticidin antibiotics on the third day post transduction.
Transfection. HEK293T, and HEK293T/dCas9 cell lines were seeded into 12-well plates at 150,000 cells per well. […] At 3 day post-transfection, the cells were sorted for GFP (sgRNA expression constructs are marked by GFP) with fluorescence-activated cell sorting (FACS) and re-plated into 12 or 24-well plates.
Quantitative reverse-transcription PCR. […]

The test system of test [4] is TetO::tdTomato transgene in HEK293T/TetO::tdTomato cell line. The test is described as follows: TetO::tdTomato transgene activation measured by FACS. It counts as cell-based. The following applies: for transgene activation with higher PBS copy numbers: 15, 20, and 47 copies of PBS. An excerpt:
In particular, to test whether appending PBS to the 3′ end of sgRNA affects sgRNA function, a series of modified Tet-targeting (sgTetO) or non-targeting control (sgControl) sgRNA were generated, […] domain-binding sequence (PBS) for PUF (3-2) (also simply referred to as PUFa) [PBS32 or PBSa: SEQ ID NO:8 (5′-UGUAUgUA-3′)], PUF(6-2/7-2) (also simply referred to as PUFb) [PBS6272 or PBSb: SEQ ID NO:9 (5′-UugAUAUA-3′)].
Cells were transfected with dCas9-VP64 with the different sgRNA scaffolds, and were analyzed by fluorescent-activated cell sorting (FACS) two days after transfection (FIG. 1B).
Cell Culture for Experiments. HEK293T cells were cultivated in Dulbecco's modified Eagle's medium (DMEM)(Sigma) with 10% fetal bovine serum (FBS)(Lonza), 4% Glutamax (Gibco), 1% Sodium Pyruvate (Gibco) and penicillin-streptomycin (Gibco). Incubator conditions were 37° C. and 5% CO2. For activation experiments, cells were seeded into 12-well plates at 100,000 cells per well the day before being transfected with 200 ng of dCas9 construct, 100 ng of modified sgRNA and 100 ng of PUF-fusion with Attractene transfection reagent (Qiagen). After transfection, cells were grown for 48 hrs and harvested for either RNA extraction or fluorescent-activated cell sorting (FACS). For dual activation-repression experiments, transfection remained the same, however cells were seeded into 12-well plates at 150,000 cells per well and were grown for 72 hrs before being harvested for FACS. For experiments with OCT4 and SOX2 dual activation-repression, cells were triple-sorted by BFP (for the activator-repressor module PUFb-p65HSF1/BFPKRAB-PUFa), mCherry (for dCas9mCherry) and GFP (for the sgRNA-PBS on vectors co-expressing EGFP) before RNA extraction. […]
Fluorescent-Activated Cell Sorting. […] Samples were analyzed on a FACScalibur flow cytometer using CellQuest Pro software (BD Bioscience). […] were collected in each run.
Background: In flow cytometry, cells or beads pass a laser one at a time.

Substitutions are numbered along the chain they refer to. Names and notes keep the numbering of the source.

Consider `Nc1ncn([C@@H]2O[C@H](CO)[C@@H](O)[C@H]2O)c(=O)n1` [5′azacytidine, 5-Azacytidine], for which the “frequency of bisulfite conversion (cytosine demethylation) at CpGs of hMLH1 promoter” value in test [1] was “increased bisulfite conversion frequency on multiple CpG sites within the promoter region”.

B1: PUF^531: PUF domain with mutations Q867E/Q939E/C935S/Q1011E/C1007S; SEQ ID NO:22 (protein)
chain: GRSRLLEDFRNNRYPNLQLREIAGHIMEFSQDQHGSRFIELKLERATPAERQLVFNEILQAAYQLMVDVFGNYVIQKFFEFGSLEQKLALAERIRGHVLSLALQMYGSRVIEKALEFIPSDQQNEMVRELDGHVLKCVKDQNGNHVVQKCIECVQPQSLQFIIDAFKGQVFALSTHPYGSRVIERILEHCLPDQTLPILEELHQHTEQLVQDQYGNYVIQHVLEHGRPEDKSKIVAEIRGNVLVLSQHKFASNVVEKCVTHASRTERAVLIDEVCTMNDGPHSALYTMMKDQYANYVVQKMIDVAEPGQRKIVMHKIRPHIATLRKYTYGKHILAKLEKYYMKNGVDLG
Take B1: the “affinity for new target RNA sequence compared to wild type PUF RNA” value in test [2] is on record as “very high affinity”.

B2: Dnmt3a-PUF: Dnmt3a catalytic region fused to N-terminus of PUFa; SEQ ID NO:65 (protein)
chain: MGPANHDQEFDPPKVYPPVPAEKRKPIRVLSLFDGIATGLLVLKDLGIQVDRYIASEVCEDSITVGMVRHQGKIMYVGDVRSVTQKHIQEWGPFDLVIGGSPCNDLSIVNPARKGLYEGTGRLFFEFYRLLHDARPKEGDDRPFFWLFENVVAMGVSDKRDISRFLESNPVMIDAKEVSAAHRARYFWGNLPGMNRPLASTVNDKLELQECLEHGRIAKFSKVRTITTRSNSIKQGKDQHFPVFMNEKEDILWCTEMERVFGFPVHYTDVSNMSRLARQRLLGRSWSVPVIRHLFAPLKEYFACVIDGGGGSDPKKKRKVDPKKKRKVDPKKKRKVGSTGSRNDGGGGSGGGGSGGGGSGRAGILPPKKKRKVSRGRSRLLEDFRNNRYPNLQLREIAGHIMEFSQDQHGSRFIQLKLERATPAERQLVFNEILQAAYQLMVDVFGNYVIQKFFEFGSLEQKLALAERIRGHVLSLALQMYGSRVIEKALEFIPSDQQNEMVRELDGHVLKCVKDQNGNHVVQKCIECVQPQSLQFIIDAFKGQVFALSTHPYGCRVIQRILEHCLPDQTLPILEELHQHTEQLVQDQYGNYVIQHVLEHGRPEDKSKIVAEIRGNVLVLSQHKFASNVVEKCVTHASRTERAVLIDEVCTMNDGPHSALYTMMKDQYANYVVQKMIDVAEPGQRKIVMHKIRPHIATLRKYTYGKHILAKLEKYYMKNGVDLGDPKKKRKVDPKKKRKVGGRGGGGSGGGGSGGGGSGPA
As for B2, in test [3], the “repression of SOX2 gene expression” value is on record as “more robust repression of SOX2 gene expression compared to direct fusions”.

B3: PUFa-VP64: NLS-PUFa-VP64 fusion; SEQ ID NO:32 (protein)
chain: MGILPPKKKRKVSRGRSRLLEDFRNNRYPNLQLREIAGHIMEFSQDQHGSRFIQLKLERATPAERQLVFNEILQAAYQLMVDVFGNYVIQKFFEFGSLEQKLALAERIRGHVLSLALQMYGSRVIEKALEFIPSDQQNEMVRELDGHVLKCVKDQNGNHVVQKCIECVQPQSLQFIIDAFKGQVFALSTHPYGCRVIQRILEHCLPDQTLPILEELHQHTEQLVQDQYGNYVIQHVLEHGRPEDKSKIVAEIRGNVLVLSQHKFASNVVEKCVTHASRTERAVLIDEVCTMNDGPHSALYTMMKDQYANYVVQKMIDVAEPGQRKIVMHKIRPHIATLRKYTYGKHILAKLEKYYMKNGVDLGGPAGSGRADALDDFDLDMLGSDALDDFDLDMLGSDALDDFDLDMLGSDALDDFDLDMLYID
Consider B3, for which, in test [4], the “transgene activation with higher PBS copy numbers” value is on record as “slightly lower, albeit still substantial transgene activation”. In addition, the “activation of TetO::tdTomato with only one PBSa” value in test [4] (sgRNA with one PBSa) was “not observed”.

B4: PUFb-VP64: NLS-PUFb-VP64 fusion; SEQ ID NO:33 (protein)
chain: B3 chain with S122C, E126Q, N230S, Q234E, S266N, E270Q
Take B4: the “transgene activation with higher PBS copy numbers” value in test [4] was “slightly lower, albeit still substantial transgene activation”.

(Values after patent publication US20190218261A1, “TARGETED ENHANCED DNA DEMETHYLATION” (The Jackson Laboratory, priority 2016, published 2019).)
